Results reported in US20030190687A1 (UAB RESEARCH FOUNDATION, published 2003).

Biological target: T1, human DR5 on the cell surface (Cos-7 cells transfected with full-length human DR5 cDNA); human cells that … (human, UniProt O14763 56-440)
T1 construct: whole, on cells; also called cell surface DR5; full-length DR5
Test: radioisotope labeled TRA-8 on a breast cancer line in vitro; reference soluble TRAIL

- fold higher binding activity than soluble TRAIL: 50 fold
B1: anti-human DR5 monoclonal antibody TRA-8 (mouse-mouse hybridoma TRA-8, ATCC PTA-1428) (antibody, mouse IgG1, kappa, V domains shown)
VH: EVMLVESGGGLVKPGGSLKLSCAASGFTFSSYVMSWVRQTPEKRLEWVATISSGGSYTYYPDSVKGRFTISRDNAKNTLYLQMSSLRSEDTAMYYCARRGDSMITTDYWGQGTTLTVSS
VL: DIVMTQSHKFMSTSVGDRVSITCKASQDVGTAVAWYQQKPGQSPKLLIYWASTRHTGVPDRFTGSGSGTDFTLTISNVQSEDLADYFCQQYSSYRTFGGGTKLEIKR
notes: also called monoclonal anti-DR5 antibody (clone: TRA-8); TRA-8 antibody
